US6489299B2, “Methods for treatment of multiple sclerosis using peptide analogues at position 91 of human myelin basic protein” (Stanford University Medical Center, priority 1994, dated 2002)

Key:
[1] = tested on: lymph node cells (LNC) reactive to MBP (87-99); assay: Antigen-specific lymph node cell proliferation assay; assay type: cell-based, Lewis rat; conditions: 10 μM peptide, 3 days, [3H]-thymidine; FIG. 4
Procedure: FIG. 4 is a graph displaying the proliferative response of MBP-reactive lymph node cells to position 91-substituted analogues. Two different substitutions were tested. The proliferative response of lymph node cells to 10 μM of MBP (87-99), motilin, A91 or K91 was determined. Proliferation is shown as counts per minute. BKG, no peptide added; 87-99, MBP (87-99); motilin, an unrelated peptide; A91, peptide analogue with alanine at position 91; K91, peptide analogue with D-lysine at position 91.
As an alternative to the use of T cell lines as described above, draining lymph node cells from Lewis rats immunized with MBP (87-99) may be used. […] Cultures are harvested on fiberglass filters and counted in a scintillation counter. Mean CPM and the standard error of the mean are calculated from data determined in triplicate cultures. […]
For the assay, 100 μl of the lymph node suspension was added to 96-well flat-bottom wells in the presence of an equal volume of medium containing 10 μM of various peptides (including: motilin as a negative control; MBP87-99; medium only, or alanine or D-amino acid substituted at position 91). […] The plates were then harvested with a Matrix filtermate harvester (Packard) and counted using an Automatic Direct Beta Counter (Packard). Mean cpm and the standard error of the mean were calculated from triplicate wells.

[2] = tested on: MBP specific rat T cell line (NBI); assay: Antigen-specific T cell line proliferation assay; assay type: cell-based; conditions: three days, [3H]-thymidine; analogues at 20-120 μM; FIG. 3
Procedure: FIG. 3 is a graph displaying the proliferative response of the T cell line NBI to position 91-substituted analogues. Ten different substitutions were tested. The proliferative response of NBI in response to concentrations of analogues ranging from 0 to 150 μM was determined. Proliferation is shown as counts per minute. Standard errors of the mean were less than ±10%. MBP 87-99; peptides from human myelin basic protein containing residues 87 to 99; K, lysine; R, arginine; N, asparagine; H, histidine; L, leucine; S, serine; G, glycine; k, D-lysine; E, glutamic acid; F, phenylalanine; and A, alanine.
In the direct proliferation assay, MBP (87-99) reactive T cell lines may be used as target cells. T cell lines are established from lymph nodes taken from rats injected with MBP (87-99). […] After 5 to 6 passages in this manner, the proliferative potential of the cell lines are determined. […] Cultures are harvested and incorporated counts determined. Mean CPM and standard error of the mean are calculated from triplicate cultures. […]
For this antigen-specific proliferation assay, T cell lines as established in Example 3 were used. […] Cultures were harvested on fiberglass filters and the proliferative response expressed as CPM±SD or as stimulation index (SI) (mean CPM from test cultures divided by mean CPM from control cultures).

[3] = tested on: EAE; conditions: rat, in vivo
Procedure: In addition, as a safety measure, but not essential to this invention, suitable peptide analogues may be tested for direct induction of EAE. As described in detail in Example 2, various amounts of peptide analogues are injected at the base of the tail of rats, and the rats examined daily for signs of EAE. A peptide analogue which is not considered to cause EAE has a mean cumulative score of less than or equal to 1 over seven days when 1 mg (5 mg/kg) in complete Freund's adjuvant is injected.
MBP peptides and analogues were dissolved in phosphate-buffered saline (PBS) and emulsified with an equal volume of incomplete Freund's adjuvant supplemented with 4 mg/ml heat-killed Mycobacterium tuberculosis H37Ra in oil (Difco Laboratories, Inc., Detroit, Mich.). Rats were immunized subcutaneously in the hind foot pads with 0.1 ml of the emulsion and were monitored for clinical signs daily by an observer blind to the treatment protocol. For intravenous injections MBP peptides and analogues were dissolved in normal saline. EAE was scored as follows: 0, clinically normal; 1, flaccid tail; 2, hind limb paralysis; 3, front and hind limb paralysis.
The ability of peptide analogues to cause EAE is assessed in vivo. Rats were injected with MBP (87-99) or (91K>A) peptide analogue as described in Example 2. Animals were monitored daily for evidence of EAE. Rats receiving MBP (87-99) had 100% incidence (18/18 rats) of EAE with a mean maximum clinical score of 2.4±0.2. In contrast, 0/12 rats receiving the peptide analogue (91k>A) had EAE.

[4] = tested on: multiple sclerosis; conditions: human, in vivo; cited from earlier work

CC[C@H](C)[C@H](NC(=O)[C@@H]1CCCN1C(=O)[C@@H](NC(=O)[C@@H](N)Cc1ccccc1)C(C)C)C(=O)N[C@@H](Cc1ccccc1)C(=O)N[C@H](C(=O)N[C@@H](Cc1ccc(O)cc1)C(=O)NCC(=O)N[C@@H](CCC(=O)O)C(=O)N[C@@H](CC(C)C)C(=O)N[C@@H](CCC(N)=O)C(=O)N[C@@H](CCCNC(=N)N)C(=O)N[C@@H](CCSC)C(=O)N[C@@H](CCC(N)=O)C(=O)N[C@@H](CCC(=O)O)C(=O)N[C@@H](CCCCN)C(=O)N[C@@H](CCC(=O)O)C(=O)N[C@@H](CCCNC(=N)N)C(=O)N[C@@H](CC(N)=O)C(=O)N[C@@H](CCCCN)C(=O)NCC(=O)N[C@@H](CCC(N)=O)C(=O)O)[C@@H](C)O [motilin, reference compound]
proliferative response of MBP (87-99)-reactive lymph node cells (in words) [1]: failed to respond as well
proliferation of the MBP specific rat T cell line (in words) [2]: does not stimulate proliferation at any dose

MBP(68-88): EAE-inducing myelin basic protein peptide from a different region (KRTADPKNAWQDAHPADPGSR; UniProt P02686 68-88, looked up, fragment) [reference compound]
EAE Incidence [3]: 6/6
EAE Mean Maximum Clinical Score [3]: 3 ± 0

B1: IFN-γ: cytokine administered to MS patients in a pilot study (protein, UniProt P01579 24-161, looked up)
Interferon gamma: QDPYVKEAENLKKYFNAGHSDVADNGTLFLGILKNWKEESDRKIMQSQIVSFYFKLFKNFKDDQSIQKSVETIKEDMNVKFFNSNKKKRDDFEKLTNYSVTDLNVQRKAIHELIQVMAELSPAAKTGKRKRSQMLFRG
patients with a clinical exacerbation within one month after initiation of treatment [4]: 7 of 18
specific response to MBP (in words) [4]: increase
